# The supplement of paper PMC9112550, “Optimization of the antimicrobial peptide Bac7 by deep mutational scanning” (BMC Biology, 2022)
# Tested on: Escherichia coli TOP10
# Experiment: shrunken log2 fold change of peptide-encoding DNA abundance (4.5 h post-induction vs induction); higher = less antimicrobial activity (less host growth inhibition)
# Details: time post-induction: 4.5 h; library: site-saturation at positions 5, 18, 19, 20
# 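Further: peptides expressed intracellularly from a pBAD plasmid library in pooled LB shake-flask culture, induced with 0.3% L-arabinose, DNA abundance read by NGS, three biological replicates, DESeq2 with apeglm shrinkage.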
row,Sequence,shrunken log2 fold change
1,RRIRKRPPRLPRPRPRPIDRPRP,-0.0769
2,RRIRRRPPRLPRPRPRPRFWPRP,0.652
3,RRIRHRPPRLPRPRPRPSSNPRP,-0.399
4,RRIRDRPPRLPRPRPRPVSKPRP,0.0275
5,RRIRCRPPRLPRPRPRPQAGPRP,0.109
6,RRIRCRPPRLPRPRPRPQIPPRP,-0.126
7,RRIRRRPPRLPRPRPRPWMDPRP,-0.196
8,RRIRVRPPRLPRPRPRPLQAPRP,0.432
9,RRIRKRPPRLPRPRPRPPHVPRP,0.498
10,RRIRDRPPRLPRPRPRPSEEPRP,0.277
11,RRIRTRPPRLPRPRPRPEHTPRP,-0.174
12,RRIRDRPPRLPRPRPRPIHDPRP,-0.58
13,RRIRTRPPRLPRPRPRPCDHPRP,-0.0753
14,RRIRTRPPRLPRPRPRPKGKPRP,0.34
15,RRIRKRPPRLPRPRPRPLRNPRP,0.653
16,RRIRHRPPRLPRPRPRPQVSPRP,-0.00697
17,RRIRQRPPRLPRPRPRPCNTPRP,-0.257
18,RRIRGRPPRLPRPRPRPQNGPRP,3.22
19,RRIRRRPPRLPRPRPRPDFDPRP,0.291
20,RRIRYRPPRLPRPRPRPNRNPRP,-1
21,RRIRRRPPRLPRPRPRPFPKPRP,0.0876
22,RRIRYRPPRLPRPRPRPVTCPRP,-0.0508
23,RRIRMRPPRLPRPRPRPYTTPRP,-0.335
24,RRIRSRPPRLPRPRPRPGWDPRP,0.444
25,RRIRKRPPRLPRPRPRPSGNPRP,0.267

row,Sequence,shrunken log2 fold change
1,RRIRCRPPRLPRPRPRPCTYPRP,-1.19
2,RRIRQRPPRLPRPRPRPYVTPRP,-0.253
3,RRIRFRPPRLPRPRPRPTSDPRP,-0.206
4,RRIRLRPPRLPRPRPRPRPEPRP,0.799
5,RRIRFRPPRLPRPRPRPGWRPRP,0.536
6,RRIRQRPPRLPRPRPRPASFPRP,0.0572
7,RRIRNRPPRLPRPRPRPYYAPRP,-0.0919
8,RRIRYRPPRLPRPRPRPSESPRP,-0.0299
9,RRIRNRPPRLPRPRPRPNGDPRP,-0.0698
10,RRIRERPPRLPRPRPRPDQVPRP,-0.148
11,RRIRYRPPRLPRPRPRPGSMPRP,-0.182
12,RRIRTRPPRLPRPRPRPEVDPRP,0.036
13,RRIRARPPRLPRPRPRPTMVPRP,-0.0882
14,RRIRQRPPRLPRPRPRPRQPPRP,0.622
15,RRIRQRPPRLPRPRPRPKIMPRP,-0.668
16,RRIRRRPPRLPRPRPRPNYIPRP,-0.237
17,RRIRSRPPRLPRPRPRPFRLPRP,-0.793
18,RRIRDRPPRLPRPRPRPRVMPRP,0.106
19,RRIRQRPPRLPRPRPRPQVMPRP,0.095
20,RRIRRRPPRLPRPRPRPEIFPRP,0.215
21,RRIRPRPPRLPRPRPRPDERPRP,-0.0865
22,RRIRWRPPRLPRPRPRPQGLPRP,0.00602
23,RRIRFRPPRLPRPRPRPEMRPRP,0.244
24,RRIRVRPPRLPRPRPRPCVGPRP,0.00147
25,RRIRCRPPRLPRPRPRPTSKPRP,0.921

row,Sequence,shrunken log2 fold change
1,RRIRSRPPRLPRPRPRPAQLPRP,-0.142
2,RRIRDRPPRLPRPRPRPMLWPRP,0.015
3,RRIRCRPPRLPRPRPRPHDEPRP,-0.0201
4,RRIRGRPPRLPRPRPRPLLFPRP,0.873
5,RRIRTRPPRLPRPRPRPNEAPRP,0.172
6,RRIRGRPPRLPRPRPRPQPCPRP,0.466
7,RRIRARPPRLPRPRPRPCVEPRP,0.317
8,RRIRSRPPRLPRPRPRPLSFPRP,-0.24
9,RRIRARPPRLPRPRPRPKGNPRP,0.0299
10,RRIRDRPPRLPRPRPRPHRDPRP,-0.0968
11,RRIRTRPPRLPRPRPRPNDSPRP,-0.00242
12,RRIRNRPPRLPRPRPRPHMMPRP,-0.326
13,RRIRHRPPRLPRPRPRPRFLPRP,0.0768
14,RRIRPRPPRLPRPRPRPTMSPRP,0.0176
15,RRIRHRPPRLPRPRPRPMIQPRP,-0.0673
16,RRIRARPPRLPRPRPRPMVKPRP,-0.00629
17,RRIRHRPPRLPRPRPRPTEIPRP,0.0223
18,RRIRIRPPRLPRPRPRPPDFPRP,0.189
19,RRIRERPPRLPRPRPRPEFCPRP,0.112
20,RRIRTRPPRLPRPRPRPSKNPRP,-0.325
21,RRIRNRPPRLPRPRPRPYHTPRP,-0.0317
22,RRIRWRPPRLPRPRPRPANHPRP,-0.262
23,RRIRERPPRLPRPRPRPDAKPRP,0.0113
24,RRIRTRPPRLPRPRPRPCRRPRP,-0.111
25,RRIRWRPPRLPRPRPRPQAVPRP,0.232

row,Sequence,shrunken log2 fold change
1,RRIRIRPPRLPRPRPRPQEVPRP,0.0526
2,RRIRTRPPRLPRPRPRPRQTPRP,0.0617
3,RRIRCRPPRLPRPRPRPPYGPRP,-0.266
4,RRIRKRPPRLPRPRPRPNNTPRP,-0.243
5,RRIRTRPPRLPRPRPRPDHHPRP,-0.474
6,RRIRWRPPRLPRPRPRPVQIPRP,0.278
7,RRIRGRPPRLPRPRPRPMSGPRP,0.0585
8,RRIRYRPPRLPRPRPRPWRAPRP,-0.142
9,RRIRPRPPRLPRPRPRPCLIPRP,-0.129
10,RRIRKRPPRLPRPRPRPVIHPRP,-0.0677
11,RRIRPRPPRLPRPRPRPLEWPRP,-0.00787
12,RRIRSRPPRLPRPRPRPMYFPRP,-0.229
13,RRIRPRPPRLPRPRPRPHPWPRP,0.0817
14,RRIRFRPPRLPRPRPRPEFHPRP,-0.342
15,RRIRVRPPRLPRPRPRPYIIPRP,-0.519
16,RRIRRRPPRLPRPRPRPTCAPRP,0.502
17,RRIRTRPPRLPRPRPRPIFLPRP,-0.145
18,RRIRERPPRLPRPRPRPYTRPRP,-0.252
19,RRIRRRPPRLPRPRPRPIFCPRP,0.0473
20,RRIRPRPPRLPRPRPRPGHEPRP,-0.202
21,RRIRCRPPRLPRPRPRPMIIPRP,-0.18
22,RRIRDRPPRLPRPRPRPREEPRP,1.27
23,RRIRWRPPRLPRPRPRPTLYPRP,-0.0322
24,RRIRNRPPRLPRPRPRPSIFPRP,-0.662
25,RRIRPRPPRLPRPRPRPLPHPRP,-0.206

row,Sequence,shrunken log2 fold change
1,RRIRSRPPRLPRPRPRPKKGPRP,0.0379
2,RRIRARPPRLPRPRPRPWLIPRP,0.111
3,RRIRSRPPRLPRPRPRPKAEPRP,0.213
4,RRIRSRPPRLPRPRPRPLEHPRP,0.0173
5,RRIRSRPPRLPRPRPRPIRDPRP,0.156
6,RRIRQRPPRLPRPRPRPRVCPRP,0.303
7,RRIRMRPPRLPRPRPRPEKYPRP,0.746
8,RRIRVRPPRLPRPRPRPMKPPRP,-0.0376
9,RRIRYRPPRLPRPRPRPSKMPRP,-0.365
10,RRIRRRPPRLPRPRPRPKQDPRP,0.38
11,RRIRGRPPRLPRPRPRPPVMPRP,0.333
12,RRIRTRPPRLPRPRPRPEWDPRP,0.064
13,RRIRLRPPRLPRPRPRPVRDPRP,-0.105
14,RRIRNRPPRLPRPRPRPQSSPRP,-0.0447
15,RRIRGRPPRLPRPRPRPKLAPRP,1.67
16,RRIRIRPPRLPRPRPRPLACPRP,-0.398
17,RRIRMRPPRLPRPRPRPSTLPRP,-0.239
18,RRIRSRPPRLPRPRPRPFNQPRP,-0.295
19,RRIRIRPPRLPRPRPRPMLSPRP,-0.403
20,RRIRWRPPRLPRPRPRPMSSPRP,0.0453
21,RRIRFRPPRLPRPRPRPLTSPRP,-0.0399
22,RRIRGRPPRLPRPRPRPFTQPRP,-0.0854
23,RRIRQRPPRLPRPRPRPAYNPRP,0.018
24,RRIRRRPPRLPRPRPRPYKGPRP,0.0251
25,RRIRQRPPRLPRPRPRPPDDPRP,-0.308
